Test results published in paper PMC8053111, “MKRN3-mediated ubiquitination of Poly(A)-binding proteins modulates the stability and translation of GNRH1 mRNA in mammalian puberty” (Nucleic Acids Research, 2021).

B1: Gst-MKRN3 middle region (126-295aa) (domain or fragment, human, UniProt Q13064 126-295, looked up)
chain: MATEGGVSPPGASAGGGPSTAAHIEPPTQEVAEAPPAASSLSLPVIGSAAERGFFEAERDNADRGAAGGAGVESWADAIEFVPGQPYRGRWVASAPEAPLQSSETERKQMAVGSGLRFCYYASRGVCFRGESCMYLHGDICDMCGLQTLHPMDAAQREEHMRACIEAHEK
notes: source: E. coli BL21, purified (glutathione beads, eluted with reduced glutathione, dialyzed)
B2: recombinant Gst-tagged MKRN3 (natural protein, human, UniProt Q13064 1-507, looked up)
chain: MEEPAAPSEAHEAAGAQAGAEAAREGVSGPDLPVCEPSGESAAPDSALPHAARGWAPFPVAPVPAHLRRGGLRPAPASGGGAWPSPLPSRSSGIWTKQIICRYYIHGQCKEGENCRYSHDLSGRKMATEGGVSPPGASAGGGPSTAAHIEPPTQEVAEAPPAASSLSLPVIGSAAERGFFEAERDNADRGAAGGAGVESWADAIEFVPGQPYRGRWVASAPEAPLQSSETERKQMAVGSGLRFCYYASRGVCFRGESCMYLHGDICDMCGLQTLHPMDAAQREEHMRACIEAHEKDMELSFAVQRGMDKVCGICMEVVYEKANPNDRRFGILSNCNHSFCIRCIRRWRSARQFENRIVKSCPQCRVTSELVIPSEFWVEEEEEKQKLIQQYKEAMSNKACRYFAEGRGNCPFGDTCFYKHEYPEGWGDEPPGPGGGSFSAYWHQLVEPVRMGEGNMLYKSIKKELVVLRLASLLFKRFLSLRDELPFSEDQWDLLHYELEEYFNLIL
notes: MKRN3, human, full length; Written Gst-MKRN3; also called Gst-MKRN3; full length MKRN3; source: E. coli BL21, purified (glutathione beads, eluted with reduced glutathione, dialyzed)

How the values were obtained:
[1] = target: T1, PABPC1-His6 (human, UniProt P11940 1-636); assay: pull-down; GST pull-down: 20 μg purified Gst-MKRN or MKRN3 truncation, 20 μg PABP-His6 or truncation and Glutathione Sepharose 4B, 4°C overnight in 500 μl of 20 mM Tris-Cl, 100 mM NaCl, 5 mM MgCl2, 1 mM EDTA, 1 mM DTT, 0.5% NP-40, 10 μg/ml BSA, pH 7.5; five washes; Coomassie staining and anti-His immunoblot; settings: both partners purified
T1 construct: PABPC1, human, full length; Written PABPC1-His6; also called His6-tagged PABPC1; full length PABPC1; source: E. coli BL21, purified (Ni beads, eluted with imidazole, dialyzed)
T1 sequence (P11940 whole entry, the tested form may be a part): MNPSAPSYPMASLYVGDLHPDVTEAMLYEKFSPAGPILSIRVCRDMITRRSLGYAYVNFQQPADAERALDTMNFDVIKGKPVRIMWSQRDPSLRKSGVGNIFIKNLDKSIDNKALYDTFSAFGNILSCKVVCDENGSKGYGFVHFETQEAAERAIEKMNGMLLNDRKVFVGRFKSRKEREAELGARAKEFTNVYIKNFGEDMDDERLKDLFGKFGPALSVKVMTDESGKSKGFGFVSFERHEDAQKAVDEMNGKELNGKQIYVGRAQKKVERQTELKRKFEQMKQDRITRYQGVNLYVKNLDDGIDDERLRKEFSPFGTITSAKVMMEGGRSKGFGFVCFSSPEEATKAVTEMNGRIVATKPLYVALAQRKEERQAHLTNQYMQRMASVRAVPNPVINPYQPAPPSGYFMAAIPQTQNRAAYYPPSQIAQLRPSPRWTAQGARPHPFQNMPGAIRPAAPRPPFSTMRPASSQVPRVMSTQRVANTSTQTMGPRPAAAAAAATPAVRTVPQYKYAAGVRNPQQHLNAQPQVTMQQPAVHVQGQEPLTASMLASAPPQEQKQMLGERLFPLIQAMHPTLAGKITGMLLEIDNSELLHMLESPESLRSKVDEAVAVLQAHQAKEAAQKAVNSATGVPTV

[2] = target: PABPC1 (human, UniProt P11940 1-636); assay: EMSA; unmodified; EMSA Binding Buffer (Beyotime, 5x stock; composition, salt and pH not given), room temperature, 1 h; 8% polyacrylamide 0.5x TBE gel; settings: protein: recombinant; tags: Flag-His6 (pET28a-PABPC1-Flag-His6); label: 32P (gamma-32P, stated at 3' end by T4 PNK); single strand
Chain of PABPC1 (P11940 whole entry): as the sequence (P11940 whole entry, the tested form may be a part) above

[3] = target: PABPC4 (human, UniProt Q13310 1-644); assay: as above; settings: protein: recombinant; tags: Flag-His6 (pET28a-PABPC4-Flag-His6); label: 32P (gamma-32P, stated at 3' end by T4 PNK); single strand
Chain of PABPC4 (Q13310 whole entry, the tested form may be a part): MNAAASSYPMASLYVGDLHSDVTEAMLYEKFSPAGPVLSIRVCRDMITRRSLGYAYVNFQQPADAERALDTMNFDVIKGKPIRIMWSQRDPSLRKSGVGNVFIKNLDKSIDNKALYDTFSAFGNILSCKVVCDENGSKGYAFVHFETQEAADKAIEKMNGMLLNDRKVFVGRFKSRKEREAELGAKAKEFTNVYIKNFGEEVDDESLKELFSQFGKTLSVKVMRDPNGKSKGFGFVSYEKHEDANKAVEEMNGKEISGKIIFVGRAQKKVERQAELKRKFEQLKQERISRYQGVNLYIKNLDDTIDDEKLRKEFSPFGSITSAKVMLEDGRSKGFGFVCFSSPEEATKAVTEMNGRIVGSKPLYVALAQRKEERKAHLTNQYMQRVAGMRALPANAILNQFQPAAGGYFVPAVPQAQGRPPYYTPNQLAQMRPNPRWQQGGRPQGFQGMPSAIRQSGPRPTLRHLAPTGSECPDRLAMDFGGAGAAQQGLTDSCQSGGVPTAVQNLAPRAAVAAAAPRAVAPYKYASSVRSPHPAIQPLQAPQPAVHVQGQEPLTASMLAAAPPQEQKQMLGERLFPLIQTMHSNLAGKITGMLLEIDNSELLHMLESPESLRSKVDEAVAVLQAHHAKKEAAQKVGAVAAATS

[4] = target: T2, PABPC3-His6 (human, UniProt Q9H361 1-631); assay: pull-down; GST pull-down: 20 μg purified Gst-MKRN or MKRN3 truncation, 20 μg PABP-His6 or truncation and Glutathione Sepharose 4B, 4°C overnight in 500 μl of 20 mM Tris-Cl, 100 mM NaCl, 5 mM MgCl2, 1 mM EDTA, 1 mM DTT, 0.5% NP-40, 10 μg/ml BSA, pH 7.5; five washes; Coomassie staining and anti-His immunoblot; settings: both partners purified
T2 construct: PABPC3, human; also called His6-tagged PABPC3; source: E. coli BL21, purified (Ni beads, eluted with imidazole, dialyzed)
T2 sequence (Q9H361 whole entry, the tested form may be a part): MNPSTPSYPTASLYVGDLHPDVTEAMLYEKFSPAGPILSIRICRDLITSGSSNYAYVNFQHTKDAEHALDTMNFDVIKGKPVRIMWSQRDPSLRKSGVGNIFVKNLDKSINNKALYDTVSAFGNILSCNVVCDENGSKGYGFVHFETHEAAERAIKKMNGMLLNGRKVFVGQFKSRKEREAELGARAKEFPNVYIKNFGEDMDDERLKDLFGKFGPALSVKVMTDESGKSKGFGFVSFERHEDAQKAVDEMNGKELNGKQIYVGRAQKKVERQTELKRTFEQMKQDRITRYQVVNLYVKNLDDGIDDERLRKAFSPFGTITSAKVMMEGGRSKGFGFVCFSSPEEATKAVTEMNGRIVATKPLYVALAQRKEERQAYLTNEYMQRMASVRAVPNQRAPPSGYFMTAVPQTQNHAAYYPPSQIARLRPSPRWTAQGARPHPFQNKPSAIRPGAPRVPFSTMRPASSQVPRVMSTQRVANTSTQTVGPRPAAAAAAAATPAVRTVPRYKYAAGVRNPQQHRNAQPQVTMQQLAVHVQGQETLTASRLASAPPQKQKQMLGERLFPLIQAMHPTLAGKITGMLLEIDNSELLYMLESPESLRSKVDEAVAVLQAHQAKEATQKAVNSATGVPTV

Row | Binder | binding result [1] | binding result [2] | binding result [3] | binding result [4]
1 | B1 | binds |  |  | 
2 | AAAAAAAAAAAAAAAAAAAAAAAAAAAAAA (ssRNA) [(A)30 RNA] |  | binds | binds | 
3 | B2 | binds |  |  | binds
